# In patent USRE49495E1, “Binding polypeptides having a mutated scaffold” (Affibody AB, priority 2013, dated 2023):
# Legend:
# [1] = target: T1, human PDGF-Rβ (R&D Systems, cat. no. 385-PR-100/CF) (human, UniProt P09619 33-530, limits assumed); experiment: SPR Biacore 2000, PDGF-Rβ on CM5 chip, 1:1 binding with mass transfer; sample (0) before stability test
# T1 construct: Bought; also called platelet-derived growth factor receptor beta
# [2] = target: T1, human PDGF-Rβ (R&D Systems, cat. no. …); experiment: SPR Biacore 2000, PDGF-Rβ on CM5 chip, 1:1 binding with mass transfer; sample (2w) after 2 weeks at 37 C
# [3] = target: T1, human PDGF-Rβ (R&D Systems, cat. no. …); experiment: SPR Biacore 2000, PDGF-Rβ on CM5 chip, 1:1 binding with mass transfer; KD after 2 weeks at 37 C against KD before
# [4] = target: T1, human PDGF-Rβ (R&D Systems, cat. no. …); experiment: SPR Biacore 2000, PDGF-Rβ on CM5 chip, 1:1 binding with mass transfer; sample (0) before stability test; reference Z15805 (0)
# [5] = target: T1, human PDGF-Rβ (R&D Systems, cat. no. …); experiment: SPR Biacore 2000, PDGF-Rβ on CM5 chip, 1:1 binding with mass transfer; sample (2w) after 2 weeks at 37 C; reference Z15805 (2w)
# [6] = target: T2, human C5 (Quidel, cat. no. A403) (human, UniProt P01031 19-673; P01031 678-1676, limits assumed); experiment: BLI (ForteBio), compound captured on HSA sensor, human C5 0.79-25 nM, 1:1 model
# T2 construct: Bought protein; also called hC5; human complement component 5
# T1 sequence (P09619 33-530 limits assumed): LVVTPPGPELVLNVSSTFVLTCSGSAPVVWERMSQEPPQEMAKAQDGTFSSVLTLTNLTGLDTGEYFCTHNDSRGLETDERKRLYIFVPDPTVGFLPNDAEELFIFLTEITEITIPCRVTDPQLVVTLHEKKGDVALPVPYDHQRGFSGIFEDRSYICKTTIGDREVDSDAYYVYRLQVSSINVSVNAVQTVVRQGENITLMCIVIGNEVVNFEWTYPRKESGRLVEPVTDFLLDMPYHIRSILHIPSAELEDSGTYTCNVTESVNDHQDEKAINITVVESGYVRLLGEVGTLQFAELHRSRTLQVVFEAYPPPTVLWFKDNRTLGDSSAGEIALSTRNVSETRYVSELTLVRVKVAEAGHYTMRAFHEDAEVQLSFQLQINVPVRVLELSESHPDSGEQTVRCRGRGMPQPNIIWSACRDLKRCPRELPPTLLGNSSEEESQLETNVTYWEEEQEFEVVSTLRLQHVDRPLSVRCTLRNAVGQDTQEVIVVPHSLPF
Kd [1] [nM],koff [1] [s⁻¹],kon [1] [M⁻¹ s⁻¹],Kd [2] [nM],koff [2] [s⁻¹],kon [2] [M⁻¹ s⁻¹],KD(2w)/KD(0) [3] [ratio],KDInv/KDOrig [4] [ratio],KDInv/KDOrig [5] [ratio],Rel. KD [6],Binder
1.2,0.0616,5.15e+07,1.1,0.0623,5.62e+07,0.93,6.19,3.88,–,Z17344 (designed binder) MGSSHHHHHHLQAEAKYAKELIEAAAEIDALPNLTRRQWNAFIKKLVRQPEQSSELLSEAKKLSESQAPK
–,–,–,–,–,–,–,–,–,2.1 ratio to PSI0242,"PSI0383 (designed binder, positions 52-53 changed from ND to SE against PSI0242) AEAKYAKEVLEAWDEIDRLPNLTIEQWLAFINKLDRQPEQSSELLSEAKKLSESQAPKVEGSLAEAKEAANAELDSYGVSDFYKRLIDKAKTVEGVEALKDAILAALP"
